Our source for the MOP agonist (%) values is publication PMC7689096, “Cyclizing Painkillers: Development of Backbone-Cyclic TAPS Analogs” (Frontiers in Chemistry, 2020).

Numbered stars: 1 amine (or outer) side, 2 acyl side, 3 side chain; on linkers, the order of the positions; unused ones are H or OH. Bridge positions count the residues as written; N and C are the ends. Square brackets hold non-standard residues; d marks the D form. Primed or numbered codes have the meaning given here. Ends that are not written are not given here. dR(Nα-6-aminohexyl) = N=C(N)NCCC[C@H](C(=O)[*:2])N(CCCCCCN[*:3])[*:1]; dR(Nα-3-aminopropyl) = N=C(N)NCCC[C@H](C(=O)[*:2])N(CCCN[*:3])[*:1]; Gly(N-2-aminoethyl)′ = not defined here; CO = O=C([*:1])[*:2]; Sar = CNCC(=O)O

The target in this experiment is human recombinant μ opioid receptor (human) (UniProt P35372).
Sequence of human recombinant μ opioid receptor (human) (P35372 whole entry): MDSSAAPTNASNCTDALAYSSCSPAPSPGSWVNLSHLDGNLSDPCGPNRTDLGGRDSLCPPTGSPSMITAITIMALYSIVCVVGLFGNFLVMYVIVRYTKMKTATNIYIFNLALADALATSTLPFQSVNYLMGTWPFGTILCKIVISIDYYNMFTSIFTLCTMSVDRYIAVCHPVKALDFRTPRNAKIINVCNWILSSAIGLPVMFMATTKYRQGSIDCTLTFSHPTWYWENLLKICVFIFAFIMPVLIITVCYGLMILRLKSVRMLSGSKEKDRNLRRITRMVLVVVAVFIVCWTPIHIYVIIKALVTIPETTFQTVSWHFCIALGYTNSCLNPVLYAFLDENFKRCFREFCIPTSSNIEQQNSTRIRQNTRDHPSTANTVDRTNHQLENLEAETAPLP

B1: TAPS c(6-6) (peptide)
peptide: Y[dR(Nα-6-aminohexyl)]F[Gly(N-6-aminohexyl)]
modifications: bridge 2-4 via CO; not fully specified
As to B1, the MOP agonist (%) at 10^-6 M: percent of control specific agonist response (DAMGO), CHO cells expressing human recombinant μ receptors; values lower than 25% are not significant turned out to be 21%.

B2: TAPS c(4-6) (peptide)
peptide: Y[dR(Nα-6-aminohexyl)]F[Gly(N-4-aminobutyl)]
modifications: bridge 2-4 via CO; not fully specified
Consider B2, for which the MOP agonist (%) at 10^-6 M: percent of control specific agonist response (DAMGO), CHO cells expressing human recombinant μ receptors; values lower than 25% are not significant was 1%.

B3: TAPS c(3-6) (peptide)
peptide: Y[dR(Nα-6-aminohexyl)]F[Gly(N-3-aminopropyl)]
modifications: bridge 2-4 via CO; not fully specified
In the case of B3, the MOP agonist (%) at 10^-6 M: percent of control specific agonist response (DAMGO), CHO cells expressing human recombinant μ receptors; values lower than 25% are not significant worked out at 1%.

B4: TAPS c(2-3) (peptide)
peptide: Y[dR(Nα-3-aminopropyl)]F[Gly(N-2-aminoethyl)′]
modifications: bridge 2-4 via CO; not fully specified
As to B4, the MOP agonist (%) at 10^-6 M: percent of control specific agonist response (DAMGO), CHO cells expressing human recombinant μ receptors; values lower than 25% are not significant is 24%.

B5: TAPS c(6-3) (peptide)
peptide: Y[dR(Nα-3-aminopropyl)]F[Gly(N-6-aminohexyl)]
modifications: bridge 2-4 via CO; not fully specified
Take B5: the MOP agonist (%) at 10^-6 M: percent of control specific agonist response (DAMGO), CHO cells expressing human recombinant μ receptors is 75%.

B6: TAPS c(3-3) (peptide)
peptide: Y[dR(Nα-3-aminopropyl)]F[Gly(N-3-aminopropyl)]
modifications: bridge 2-4 via CO; not fully specified
Turning to B6, the MOP agonist (%) at 10^-6 M: percent of control specific agonist response (DAMGO), CHO cells expressing human recombinant μ receptors; values lower than 25% are not significant was 1%.

B7: TAPS c(4-3) (peptide)
peptide: Y[dR(Nα-3-aminopropyl)]F[Gly(N-4-aminobutyl)]
modifications: bridge 2-4 via CO; not fully specified
Consider B7, for which the MOP agonist (%) at 10^-6 M: percent of control specific agonist response (DAMGO), CHO cells expressing human recombinant μ receptors came to 63%.

B8: linear peptide Tyr-D-Arg-Phe-Sar (TAPS) (peptide)
peptide: Y[dR]F[Sar]
For the molecule B8, the MOP agonist (%) at 10^-6 M: percent of control specific agonist response (DAMGO), CHO cells expressing human recombinant μ receptors stood at 90%.

B9: TAPS c(2-6) (peptide)
peptide: Y[dR(Nα-6-aminohexyl)]F[Gly(N-2-aminoethyl)′]-NH2
modifications: bridge 2-4 via CO; not fully specified
Regarding B9, the MOP agonist (%) at 10^-6 M: percent of control specific agonist response (DAMGO), CHO cells expressing human recombinant μ receptors stood at 48%.
